# Source: patent US20250230234A1 (Sanofi, published 2025)
# Residue numbers refer to the chain shown, from its start. Numbers in names are those of the source. Where “and” joins values, the source holds several entries; their conditions need not be identical. Identical values can stand only once.
# T1: huFcγRIIa_R167 (human, UniProt P12318 36-218, limits assumed)
# T1 construct: also called huFcγRIIA R167 polymorph
# T1 sequence (looked up): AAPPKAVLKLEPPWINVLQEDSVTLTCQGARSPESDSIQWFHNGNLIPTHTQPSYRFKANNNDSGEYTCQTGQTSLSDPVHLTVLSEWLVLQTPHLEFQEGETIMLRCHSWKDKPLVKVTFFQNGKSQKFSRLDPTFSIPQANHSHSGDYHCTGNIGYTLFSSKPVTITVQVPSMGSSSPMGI
# T2: huFcγRIIa_H167 (human, UniProt P12318 36-218, limits assumed)
# T2 construct: also called huFcγRIIA H167 polymorph
# T2 sequence (looked up): T1 sequence (looked up) with R132H
# B1: clone 11 in DE-DSB format (anti-GPRC5D IgG1 with S239D/I332E/R292C/V302C Fc mutations) (antibody)
# heavy: EVQLVESGGGLVQPGGSLRLSCAASGFTVSSNYMSWVRQAPGKGLEWVSVIYSGGSTYYADSVKGRFTISRDNSKNTLYLQMNSLRAEDTAVYYCARGFLAFGRYYYGMDVWGQGTTVTVSSASTKGPSVFPLAPSSKSTSGGTAALGCLVKDYFPEPVTVSWNSGALTSGVHTFPAVLQSSGLYSLSSVVTVPSSSLGTQTYICNVNHKPSNTKVDKKVEPKSCDKTHTCPPCPAPELLGGPDVFLFPPKPKDTLMISRTPEVTCVVVDVSHEDPEVKFNWYVDGVEVHNAKTKPCEEQYNSTYRCVSVLTVLHQDWLNGKEYKCKVSNKALPAPEEKTISKAKGQPREPQVYTLPPSRDELTKNQVSLTCLVKGFYPSDIAVEWESNGQPENNYKTTPPVLDSDGSFFLYSKLTVDKSRWQQGNVFSCSVMHEALHNHYTQKSLSLSPG
# light: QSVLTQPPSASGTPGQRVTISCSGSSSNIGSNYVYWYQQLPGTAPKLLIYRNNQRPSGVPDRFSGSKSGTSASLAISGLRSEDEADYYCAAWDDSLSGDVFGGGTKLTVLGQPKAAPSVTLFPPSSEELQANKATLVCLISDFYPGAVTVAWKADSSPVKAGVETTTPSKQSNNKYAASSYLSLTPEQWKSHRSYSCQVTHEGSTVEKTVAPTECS
# notes: human IgG1, lambda light chain; also called 11-DE-DSB; 11 DE-DSB
# What was measured:
# [1] = target: T3, human GPRC5D (full length, on cells) (human, UniProt Q9NZD1 1-345); assay: cell-based or functional assay
# T3 sequence (Q9NZD1 whole entry): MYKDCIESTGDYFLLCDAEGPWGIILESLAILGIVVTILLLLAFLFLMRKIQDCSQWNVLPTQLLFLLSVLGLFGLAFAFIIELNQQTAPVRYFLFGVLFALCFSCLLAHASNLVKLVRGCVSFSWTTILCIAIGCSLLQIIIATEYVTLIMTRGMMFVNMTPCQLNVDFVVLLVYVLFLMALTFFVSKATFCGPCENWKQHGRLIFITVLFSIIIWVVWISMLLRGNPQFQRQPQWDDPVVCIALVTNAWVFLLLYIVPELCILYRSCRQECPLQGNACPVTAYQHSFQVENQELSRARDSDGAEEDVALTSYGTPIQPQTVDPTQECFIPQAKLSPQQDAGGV
# [2] = target: T3, human GPRC5D (full length, on cells); assay: cell-based or functional assay; remark: listed apart in the source
# [3] = target: T3, human GPRC5D (full length, on cells); assay: cell-based or functional assay; remark: listed apart in the source
# [4] = target: T3, human GPRC5D (full length, on cells); assay: cell-based or functional assay; remark: listed apart in the source
# [5] = target: T3, human GPRC5D (full length, on cells); assay: cell-based or functional assay; remark: listed apart in the source
# [6] = target: T3, human GPRC5D (full length, on cells); assay: flow cytometry on MM.1R cells, apparent KD, mean
# Description: (§1) FACS analyses were performed to determine the ability of the ADCC-enhanced antibodies to bind to cells that express GPRC5D on their surface.
# (§2) Analyses were performed with Forecyt® Software. Cells were first gated in FSC (forward scatter)/SSC (side scatter). From the resulting cell population, single live cells were gated. Binding was analyzed as median fluorescence intensity (MFI) of the secondary antibody. Curves and apparent KD (“AppKD”) calculations were generated using GraphPad Prism Software (FIG. 2).
# [7] = target: T3, human GPRC5D (full length, on cells); assay: flow cytometry on MM.1R cells, apparent KD, N = 1
# Description: as §1, §2
# [8] = target: T3, human GPRC5D (full length, on cells); assay: flow cytometry on MM.1R cells, apparent KD, N = 2
# Description: as §1, §2
# [9] = target: T3, human GPRC5D (full length, on cells); assay: flow cytometry on MM.1R cells, apparent KD, N = 3
# Description: as §1, §2
# huFcγRIIa_R167 [10] = target: T1, huFcγRIIa_R167; assay: SPR Biacore T200, receptor captured by anti-His, single cycle kinetics
# huFcRn [11] = target: T4, huFcRn (human, UniProt P55899 24-297; P61769 21-119); assay: SPR Biacore T200, huFcRn on biotin CAPture, pH 5.9, mean of two; pH 5.9
# T4 construct: also called human FcRn
# T4 sequence (P55899 24-297 limits assumed, chain 1 of 2): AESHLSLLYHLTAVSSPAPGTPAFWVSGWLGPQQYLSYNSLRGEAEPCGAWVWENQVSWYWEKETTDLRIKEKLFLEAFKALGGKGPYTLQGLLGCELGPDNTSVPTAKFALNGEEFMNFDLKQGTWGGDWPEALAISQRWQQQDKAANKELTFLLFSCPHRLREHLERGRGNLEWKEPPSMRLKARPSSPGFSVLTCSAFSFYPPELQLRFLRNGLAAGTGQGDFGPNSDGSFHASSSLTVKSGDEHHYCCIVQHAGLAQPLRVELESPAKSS
# T4 sequence (P61769 21-119 limits assumed, chain 2 of 2): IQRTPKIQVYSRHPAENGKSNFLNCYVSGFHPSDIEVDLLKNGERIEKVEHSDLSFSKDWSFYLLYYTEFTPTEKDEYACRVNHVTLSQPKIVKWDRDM
# Description: (§3) The interaction of the antibodies with human Fc receptors was analysed by SPR using a Biacore™ T200 instrument in the following test conditions: [0242] Immobilization of anti-His antibodies on a CM5 sensor chip via amine coupling for seven Fcγ receptors: huFcγRI, huFcγRIIa_H131, huFcγRIIa_R131, huFcγRIIb/c, huFcγRIIIa_V158, huFcγRIIIa_F158, huFcγRIIIb, or use of biotin CAPture for the huFcRn analysis [0243] Capture of each of the Fc receptors [0244] Affinity constant determination by single cycle kinetics (SCK) at concentrations ranging from 0.6 nM to 2000 nM [0245] Interaction with huFcRn was studied at pH5.9 and pH7.4
# [12] = target: T5, cynomolgus FcγRIIIa expressed on HEK293 T cells (cynomolgus, UniProt Q8SPW2 17-254); assay: flow cytometry on HEK293 T cells expressing cyno FcγRIIIa, against BM2 IgG1 wt
# T5 construct: whole, on cells; also called cyno FcγRIIIa; cy FcγRIIIa
# T5 sequence (Q8SPW2 17-254): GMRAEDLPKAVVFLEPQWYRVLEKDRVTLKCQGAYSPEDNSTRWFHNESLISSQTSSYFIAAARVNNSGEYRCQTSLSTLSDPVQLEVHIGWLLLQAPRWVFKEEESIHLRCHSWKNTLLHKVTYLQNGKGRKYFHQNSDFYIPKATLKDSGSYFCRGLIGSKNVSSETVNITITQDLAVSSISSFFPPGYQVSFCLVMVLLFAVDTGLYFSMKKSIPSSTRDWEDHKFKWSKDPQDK
# Description: (§4) The antibodies were tested using FACS for their ability to bind cells that express human or cynomolgus FcγRIIIa on their surface. The cell lines used were recombinant stable HEK293 T cells expressing human FcγRIIIa V158 and cynomolgus FcγRIIIa to assess cynomolgus cross-reactivity.
# (§5) For dose-response curves, cells were incubated with a serial dilution of the antibodies (from 0.0001 μg/mL to 100 μg/mL) for 1 h at 4° C.
# (§6) Analyses were performed with VenturiOne® Software. Cells were first gated in FSC/SSC. From the resulting cell population, single cells and following viable cells were gated. Binding was analyzed as median fluorescence intensity (MFI) of the secondary antibody.
# huFcγRIIIa_F158 = target: T6, huFcγRIIIa_F158 (human, UniProt P08637 17-208); assay: SPR Biacore T200, receptor captured by anti-His, single cycle kinetics, mean of two
# T6 construct: Recombinant receptor captured on the SPR chip through anti-His antibodies; also called human FcγRIIIa F158 polymorph; CD16a
# T6 sequence (P08637 17-208 limits assumed): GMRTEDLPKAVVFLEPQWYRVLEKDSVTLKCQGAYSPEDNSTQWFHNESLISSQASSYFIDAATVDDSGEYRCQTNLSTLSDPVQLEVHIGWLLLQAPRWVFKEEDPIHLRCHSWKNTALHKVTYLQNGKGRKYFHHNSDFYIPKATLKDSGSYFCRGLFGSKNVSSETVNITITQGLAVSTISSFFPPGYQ
# Description: as §3
# huFcγRIIIa_V158 = target: T7, huFcγRIIIa_V158 (human, UniProt P08637 17-208); assay: as above
# T7 construct: Recombinant receptor captured on the SPR chip through anti-His antibodies; V at position 158 (mature numbering, as the name says); also called human FcγRIIIa V158 polymorph; CD16a
# T7 sequence (P08637 17-208 F176V limits assumed): as the sequence (P08637 17-208 limits assumed) above, with F160V counted along it
# Description: as §3
# huFcγRIIa_H167 = target: T2, huFcγRIIa_H167; assay: as above
# Description: as §3
# huFcγRIIa_R167 [13] = target: T1, huFcγRIIa_R167; assay: as above
# Description: as §3
# huFcγRI = target: T8, huFcγRI (human, UniProt P12314 16-288); assay: as above
# T8 construct: also called human FcγRI
# T8 sequence (P12314 16-288 limits assumed): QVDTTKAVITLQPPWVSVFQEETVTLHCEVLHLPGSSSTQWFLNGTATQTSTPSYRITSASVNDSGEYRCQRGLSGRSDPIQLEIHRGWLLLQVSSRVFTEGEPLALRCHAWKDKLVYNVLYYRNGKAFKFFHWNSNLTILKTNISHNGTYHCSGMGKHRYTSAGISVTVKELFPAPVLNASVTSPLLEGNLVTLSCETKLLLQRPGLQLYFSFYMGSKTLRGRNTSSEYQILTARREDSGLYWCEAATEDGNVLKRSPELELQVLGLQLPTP
# Description: as §3
# huFcγRIIIb = target: T9, huFcγRIIIb (human, UniProt O75015 17-200); assay: as above
# T9 construct: also called human FcγRIIIb
# T9 sequence (O75015 17-200 limits assumed): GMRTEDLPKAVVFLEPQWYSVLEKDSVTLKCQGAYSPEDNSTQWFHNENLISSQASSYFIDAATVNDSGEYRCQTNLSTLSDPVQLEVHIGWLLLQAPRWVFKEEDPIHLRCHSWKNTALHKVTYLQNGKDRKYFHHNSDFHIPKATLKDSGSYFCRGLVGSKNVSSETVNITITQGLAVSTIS
# Description: as §3
# [14] = target: T10, human FcγRIIIa V158 expressed on HEK293 T cells (human, UniProt P08637 17-254); assay: flow cytometry on HEK293 T cells expressing human FcγRIIIa V158, against BM2 IgG1 wt
# T10 construct: whole, on cells; Cell-surface form, kept apart from the soluble His-captured receptor m11; also called HEK293 T human FcγRIIIa V158; hu FcγRIIIa
# T10 sequence (P08637 17-254 F176V): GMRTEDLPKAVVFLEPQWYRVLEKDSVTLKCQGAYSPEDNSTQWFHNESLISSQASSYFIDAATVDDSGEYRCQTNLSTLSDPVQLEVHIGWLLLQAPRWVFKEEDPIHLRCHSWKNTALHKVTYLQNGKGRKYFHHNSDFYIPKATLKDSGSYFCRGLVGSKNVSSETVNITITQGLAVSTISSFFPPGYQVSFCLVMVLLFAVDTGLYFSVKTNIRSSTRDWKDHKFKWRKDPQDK
# Description: as §4, §5, §6
# [15] = target: T5, cynomolgus FcγRIIIa expressed on HEK293 …; assay: flow cytometry on HEK293 T cells expressing cyno FcγRIIIa, apparent KD, mean of three
# Description: as §4, §5
# (§7) The apparent KD was determined for each molecule by drawing an appropriate non-linear regression curve using the one site-specific binding four parameters model with GraphPad Prism Software (FIG. 1).
# [16] = target: T10, human FcγRIIIa V158 expressed on HEK293 …; assay: flow cytometry on HEK293 T cells expressing human FcγRIIIa V158, apparent KD, mean of three
# Description: as §4, §5, §7
# huFcRn [17] = target: T4, huFcRn; assay: SPR Biacore T200, huFcRn on biotin CAPture, pH 5.9, mean of two; pH 5.9; fold change vs BM1 IgG1 wt
# [18] = target: T3, human GPRC5D (full length, on cells); assay: FACS on MM.1R cells (GPRC5D-positive), serial antibody dilution, goat anti-human IgG A488 secondary antibody, median fluorescence intensity
# Description: as §1, §2
binder,measurement,setting,value
B1,"EC50rel geometric mean, ADCP by macrophages against MM.1R cells (n = 5)",[1],0.0359 µg/mL
same,"relEC50 Median, ADCC (calcein release) against MM.1R cells with NK cells",[2],6 ng/ml and 40.1 pM
same,"relEC50 Median, ADCC (calcein release) against EJM cells with NK cells",[3],259 pM and 37.5 ng/ml
same,"relEC50 median, ADCC over four days (Incucyte) against MM.1R cells with NK cells",[4],0.87 ng/ml and 6 pM
same,"EC50 geometric mean, ADCP by macrophages against MM.1R cells (n = 5)",[5],0.248 nM
same,"EC50rel, ADCP by macrophages against MM.1R cells, Donor1",[5],0.297 nM
same,"EC50rel, ADCP by macrophages against MM.1R cells, Donor3",[5],0.303 nM
same,"EC50rel, ADCP by macrophages against MM.1R cells, Donor4",[5],0.517 nM
same,"EC50rel, ADCP by macrophages against MM.1R cells, Donor5",[5],0.0528 nM
same,Kd,[6],0.024 nM
same,Kd,[7],0.036 nM
same,Kd,[8],0.018 nM
same,Kd,[9],0.019 nM
same,binding result,huFcγRIIa_R167 [10],no binding (tested: 0.6 nM to 2000 nM)
same,Kd,huFcRn [11],982 nM
same,Fold change vs IgG1 wt,[12],26 fold
same,Fold change vs BM1 IgG1 wt,huFcγRIIIa_F158,10 fold
same,Kd,huFcγRIIIa_F158,22.7 nM
same,NormB,huFcγRIIIa_F158,45
same,Fold change vs BM1 IgG1 wt,huFcγRIIIa_V158,4 fold
same,Kd,huFcγRIIIa_V158,12.2 nM
same,NormB,huFcγRIIIa_V158,38
same,Fold change vs BM1 IgG1 wt,huFcγRIIa_H167,1 fold
same,Kd,huFcγRIIa_H167,2580 nM
same,NormB,huFcγRIIa_H167,15
same,NormB,huFcγRIIa_R167 [13],2
same,Fold change vs BM1 IgG1 wt,huFcγRI,2 fold
same,Kd,huFcγRI,0.499 nM
same,Fold change vs BM1 IgG1 wt,huFcγRIIIb,34 fold
same,Kd,huFcγRIIIb,52.9 nM
same,Fold change vs IgG1 wt,[14],28 fold
same,Kd,[15],1.4 nM
same,Kd,[16],1.22 nM
same,Fold change vs BM1 IgG1 wt,huFcRn [17],1 fold
same,EC50 (read off the curve),[18],~0.02 nM
